From PMC314469, “Protein Interaction Networks by Proteome Peptide Scanning” (PLoS Biology, 2004)

B1: 547-560 Ubiquitin-specific protease (peptide)
chain: SRKPPIPAKQHVKK
B2: 232-245 Hypothetical ORF (peptide)
chain: SSFPTIPLRASSGA
B3: 108-121 " Probable transcription-associated factor protein, probable -transducin type" (peptide)
chain: SSIPPNPGKTAKPI
B4: 117-130 Product of gene unknown (peptide)
chain: SSMPNSPKKPVDSL
B5: 71-84 Hypothetical ORF (peptide)
chain: SSQPRPPPRPQQNP
B6: 28-41 (putative) cell cycle exonuclease (peptide)
chain: SSRPTSPVRKARST
B7: 158-171 DNA replication helicase (peptide)
chain: SSTPIVPNRLKTVL
B8: 758-771 Hypothetical ORF (peptide)
chain: SSTPTTPERPKRKS
B9: 86-99 Member of ubiquitin-conjugating protein family (peptide)
chain: SSYPMNPPKISFMQ
B10: 48-61 Phenylacrylic acid decarboxylase (peptide)
chain: STSPPRPKRIVVAI
B11: 472-485 " Anti-silencing protein, involved in transcription" (peptide)
chain: TDSPQLPSKDKSQE
B12: 59-72 ubiquitin-conjugating enzyme (peptide)
chain: TDYPFKPPKISFTT
B13: 59-72 ubiquitin-conjugating enzyme (peptide)
chain: TDYPFKPPKVNFTT
B14: 114-127 Centractin (peptide)
chain: TEAPMNPLKNREQM
B15: 109-122 actin-related protein (peptide)
chain: TEPPMNPLKNREKM
B16: 568-581 negative regulator of prp genes (peptide)
chain: TEVPSKPKKPSKTE
B17: 507-520 serine/threonine protein kinase (peptide)
chain: THAPTTPNRTSPNR
B18: 519-532 putative zinc finger protein (peptide)
chain: TKTPTQPIRLQTVS
B19: 463-476 global regulator of transcription (peptide)
chain: TKVPSKPDRNSKIL
B20: 210-223 Hypothetical ORF (peptide)
chain: TLIPPIPEKQSIKN
B21: 384-397 DNA ligase (peptide)
chain: TLRPGIPLKPMLAK
B22: 572-585 Glutamate synthase (NADPH) (peptide)
chain: TNPPIDPIREANVM
B23: 1667-1680 GTPase activating protein (peptide)
chain: TNYPVNPEKHEMDK
B24: 872-885 Urea amidolyase (contains urea carboxylase and allophanate hydrolase) (peptide)
chain: TPAPNLPEKTRLAL
B25: 102-115 Hypothetical ORF (peptide)
chain: TPPPVEPLKTKDLA
B26: 34-47 Hypothetical ORF (peptide)
chain: TRRPHHPLKQQSTN
B27: 54-67 Hypothetical ORF (peptide)
chain: TSAPDIPPRSPNRN
B28: 247-260 Glycine-threonine-serine repeat protein (peptide)
chain: TSTPPLPRRRATTS
B29: 176-189 transcriptional activator of the SKN7 mediated 'two-component' regulatory system (peptide)
chain: TTAPRGPKKAQPAQ
B30: 347-360 Hypothetical ORF (peptide)
chain: TTRPAPPSKAKDVA
B31: 375-388 Weak similarity to Pta1p (pre-tRNA processing protein) (peptide)
chain: VDAPINPTKILTFI
B32: 120-133 soluble tyrosine-specific protein phosphatase (peptide)
chain: VDPPFMPFRDAGYS
B33: 910-923 159-kDa nucleoporin with coiled-coil domain and repeated motifs typical of nucleoporins (peptide)
chain: VENPFLPAKEERTG
B34: 535-548 " cytoskeletal protein, similar to arrestins" (peptide)
chain: VETPPKPIKKDVRF
B35: 478-491 TATA binding protein-associated factor (TAF) (peptide)
chain: VFLPTAPSKHMDFA
B36: 326-339 putative calcium channel (peptide)
chain: VFSPTNPLRIKIAR
B37: 643-656 Ubiquitin-protein ligase (peptide)
chain: VHDPNIPLRPKEII
B38: 381-394 MAL-activator protein (peptide)
chain: VHGPGIPMKSLEVA
B39: 386-399 MAL-activator protein (peptide)
chain: VHGPGVPVKTLEIA
B40: 1275-1288 Glutamate synthase (NADPH) (peptide)
chain: VIRPGVPTKFTKKQ
B41: 43-56 (putative) histone deacetylase (peptide)
chain: VKHPMKPFRLMLTD
B42: 155-168 Contains a Rho-GAP domain and two LIM domains. Has strong similarity to Rga1p. Has some similarity to all known Rho-GAPs (peptide)
chain: VKRPLSPTRINGKS
B43: 663-676 Hypothetical ORF (peptide)
chain: VLEPSKPYKKNPFM
B44: 659-672 Ubiquitin-specific protease (peptide)
chain: VPPPNVPKKDKREV
B45: 143-156 Hypothetical ORF (peptide)
chain: VQQPEDPLRVLGEY
B46: 142-155 ubiquitin-mediated 26S proteasome subunit (peptide)
chain: VSDPYVPTRNTFNY
B47: 741-754 P-type ATPase (peptide)
chain: VSIPFDPSKDTFDH
B48: 9-22 cox1 pre-mRNA splicing factor (peptide)
chain: VSTPPVPKKFQEIF
B49: 70-83 Hypothetical ORF (peptide)
chain: VTLPISPSRASISF
B50: 510-523 cytochrome P450 lanosterol 14a-demethylase (peptide)
chain: VTLPTGPAKIIWEK
B51: 181-194 integral membrane protein (peptide)
chain: VTVPKLPFKLAVNK
B52: 95-108 Product of gene unknown (peptide)
chain: VVIPPVPSRYSDER
B53: 146-159 (putative) involved in cell wall biogenesis (peptide)
chain: VVSPSHPFKQLQKI
B54: 502-515 Ubiquitin-specific protease (peptide)
chain: WKPPDLPIRLRKRP
B55: 95-108 Translation initiation factor eIF-2B epsilon subunit (peptide)
chain: WNLPWSPFKITTIM
B56: 17-30 Hypothetical ORF (peptide)
chain: WSYPYEPLRVLQVG
B57: 36-49 neutral trehalase (peptide)
chain: YGPPTDPRKQKQAK
B58: 125-138 Hypothetical ORF (peptide)
chain: YILPKNPFRVPSEM
B59: 507-520 involved in cell wall biogenesis (peptide)
chain: YKIPVVPPRETYFA

Molecular target: Sho1 SH3 (SHO1_YEAST), P40073
Sequence (P40073 295-366): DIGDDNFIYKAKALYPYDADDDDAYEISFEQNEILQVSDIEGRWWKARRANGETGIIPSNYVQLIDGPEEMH
Assay: SPOT array

Binder | normalised SPOT signal, Boehringer light units (BLU); mean over the file's lines of this peptide
B1 | 1010
B2 | 210
B3 | 121
B4 | 63.7
B5 | 83.4
B6 | 102
B7 | 161
B8 | 214
B9 | 73.5
B10 | 115
B11 | 81.7
B12 | 178
B13 | 74.8
B14 | 132
B15 | 138
B16 | 79.6
B17 | 60.5
B18 | 40.1
B19 | 132
B20 | 86.6

Binder | normalised SPOT signal, Boehringer light units (BLU); mean over the file's lines of this peptide
B21 | 452
B22 | 0
B23 | 29.3
B24 | 60.9
B25 | 128
B26 | 177
B27 | 107
B28 | 366
B29 | 45.2
B30 | 763
B31 | 174
B32 | -0
B33 | 157
B34 | 8540
B35 | 342
B36 | 102
B37 | 128
B38 | 198
B39 | 88
B40 | 513

Binder | normalised SPOT signal, Boehringer light units (BLU); mean over the file's lines of this peptide
B41 | 691
B42 | 160
B43 | 121
B44 | 11300
B45 | 128
B46 | 392
B47 | 94.6
B48 | 235
B49 | 120
B50 | 136
B51 | 129
B52 | 58
B53 | 150
B54 | 3660
B55 | 1240
B56 | 898
B57 | 198
B58 | 290
B59 | 195
